test: yeast display, Sf9 membrane polyspecificity reagent, FACS + sequencing; frameworks hold sequencing errors
How it was run: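 Nanobodies came from a synthetic yeast display library in Saccharomyces cerevisiae BJ5465, induced with galactose for 36–48 hours and stained for 1 hour at 4 °C with 10% biotinylated, detergent-solubilized Sf9 membrane reagent. Cells were enriched on streptavidin microbeads and then FACS-sorted, with low and high (top ~1%) gates set on anti-HA fluorescence for expression and streptavidin fluorescence for reagent binding. Each polyreactivity label reflects the gate a clone came from. Genes were amplified by colony PCR, sequenced by MiSeq 2 × 250 and filtered by CDR length.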

Sequence	polyreactivity (PSR sort gate)
QVQLVESGGGLVQAGGSLRLSCAASGPTFGVYAKGWDRQAPGKEREFVAAISSTGGSTYYADSVKGRFTISRDNAKNTVYLQMNSLKPEDTAVYYCAARLHTYGYSYGYWGQGTQVTVSS	high polyreactivity
QVQLVESGGGLVQAGGSLRLSCAASGYIFHSYVMGWYRQAPGKERELVAAITSDDDSTFYADSVKGRFTISRDNAKNTVYLQMNSLKPEETGVYYCAADGYYQYDKDTYYSTSDYWGQGTQVTVSS	low polyreactivity
QVQLVESGGGLVQAGGSLRLSCAATGSIYSYAMGWNRQAPGKERELVAAISRSGGRTYYADSVKGRFTISRDNAKNTVYLQMNSLKPEDTAVYYCAADGYSAKYYPGGDYWGQGTQVTVSS	high polyreactivity
QVQLVESGGGLVQAGGSLRLSCAASGSTFSHNAMGWYRQAPGKERELVAAISTSGSRTYYADSVKGRFTISRDNAKNSVYLQMNSLKPEDTAVYYCNTVPIYYSGYDYWGQGTQVTVSS	high polyreactivity
QVQLVESGGGLVQAGRSLRLSCAASGRIFPRNVMGWYRQAPGKERELVAAISSRGTRTYYADSVKGRFTISRDNAKNSVYLQLYSLKPEDTAVYYCAADGPYEGYDYWGQGTQVTVSS	high polyreactivity
QVKLVESGGCLVQAGCSLSLSCAASGRTFVTYAMGWYRQAPGKEREFVAAISWSGVSTYYADSVKGRFTISRDNAKNTVYLQMNSLKPEDTAVYYCAAKRVRALYGGSEGGYWGQGTQVTVSS	low polyreactivity
QVQLVESGGGLVQEGGSLRLSCAASGRTFWQNAMGWYRQAAGKERELVAAIRIGGSTNYAVSVKGRFTISRDNAKNTVYLQMNSLKPEYTAFYYCAARRGYYSRNDYWGQVTQVTVSS	high polyreactivity
QVQLVESGGGLVQAGGSLRLSCAASGSTFVPYAMGWYRQAPGKERELVATIRWRGDRTYYADSVKGRFTSSRDNAKKTVYLQMNSLKPEDTAVYYCNTAGWSFYSGRYDYWGQGTQVTVSS	high polyreactivity
QVQLVESGGGLVQAGGSLRLSCAASGGTFRGYTMGWYRPAPGKERELVAAITRIGGSTYYADSVKGRFTISRDNAKYTVYLQMNSLKPEDTAVYYCAARGGVPYSNAYDFWGQGTQVTVSS	low polyreactivity
QVQLVESGGGLVQAGGSLRLSCPASGRTFGIYAMGWYRQAHGKERELVAAITWSGDSTYYADSVKGRFTISRDNAKNTVYLQMNSLKPEDTAVYYCAADYVGVTSVRYDYWGQGTQVTVSS	low polyreactivity
QVQLVESGGGLVQAGGSLRLSCAASGRTFSPNAMGWYRQAPGKEREFVAAITWSGGGTFYADSVKGRFTISRDNAKNTVYLQMNSLKPEDTAVYYCAARLDTYQTHSVITPAALYYWGQGTQVTVSS	low polyreactivity
QVQLVESGGGLVQAGGSLRLSCAASGRTIRGNARGWYIQAPGKERELVAVNTASGSTTYADSVKGRFTISRDNAKNTVYLQMNSLKSEDTAVYYCAKYVPWYTLWLGGTDRDYWGQGTQVTVSS	low polyreactivity
QVQLVVSGGGLVQAGGRLRLSCAATGSTFSVNAMGWSRQAPGKERELVAAITRSGGSTYYADSVKGRFTFSRDNAKNSVYLQLNSLKPEDTAVYYCAAEIYPLGEYWGQGTQVTVSS	low polyreactivity
QVQLVESGGGLVQAGGSLRLSCAASGSTIYLNAMGWYRQAPGKERELVAAIDYRGGSTYYADSVKGRFTISRDNAKNTVYLQMNSLKPEDTAVYYCNADYVYVHYQPGYYWGQGTQVTVSS	low polyreactivity
QVQLQESGGGLVQAGGSPRLSCAASDNIFPDSVMCWYRQAPGKERELVATIGFGATTNYADSVKGRFTISRDNAKNTVYLQMNSLKPEDTAVYYCAAVPLNYEYFCYWGQGTQVTVSS	low polyreactivity
QVQLVESGGRLVQAGGSLRLSCAASGSTFVYYAMGWYRQAPGKERELVASINSGGSTYYADSVKGRFTISRDNAKNTVYLQMNSLKQEDTAVYDCAATSIPPSVHLQDPTYDYWGQGTQVTVSS	low polyreactivity
QVQLVESGGGLVQAGGSLRLSCAASGYTFGSYAMGWYRQAPGKERELVAAITRRGGSTYYADSVKGRFTISRDNAKNTVYLQMTSLKPEDTEVYYCAKRSRDYVSSFLTSHANDYWGQGTQVTVSS	high polyreactivity
QVQLVESGGGLVQAGGSLRLSCAASGITFVGNAMGWYRQAPGKERELVAGIRGNGGSTYYADSVKGRFTISRDNAKYTVYLQMNSLKPEDTAVYYCAAAAYYADFDYWGQGTQVTVSS	low polyreactivity
QVQLVESGGGLVQAGGSLRLSCAASGSIFFYYAMGWYRQAPGKERELVAAINSDGSTNYADSVKGRFTISRDNAKNTVYLQMNSVKPEDTAVYYCAADYVYYYHEYDYWGQGTQVTVSS	low polyreactivity
QVQLVESGGGLVQAGGSLRLSCAPSGSTYLSYAMGWYRQAPGKERELVAAITYSGGRTYYAESVKGRFTISRDNAKITVYLQMNSLKQEDTAVYYCAATGVFRDEYWGQGTQVTVSS	low polyreactivity
QVQLVESGGGLVQAGGSLRLSCAASGSTFYYNAMGWYRQAPGKERELVAVINSGGSTYYADSVKGRFTISRDNAKNTVYLQMNSLKPEDTAVYYCARRRRESRQDGDYWGQGTQVTVSS	high polyreactivity
QVQLVESGGGLVQAGGSLRLSCAASGSIFFSNTMGWYRQAPGKERELVARITWSGTSTNYADSVKGRFTISRDNAKNTVYLQMNSLKPEDTAVYYCNAGFYTSAGYDYWGQGTQVTVSS	high polyreactivity

Sequence	polyreactivity (PSR sort gate)
QVQLVESGGGLVQAGGSLRLSCAASGLIFSSNAMGWYRQAPGKERELVATISWSGGSTYYADSVKGRFTISRDNAKNTVYLQMNSLKPEDTAVYYCCWSALNGYDYWGQGTQVTVSS	high polyreactivity
QVQLVESGGGLVQAGGSLRLSCAASGRTFNYYAMGWYRQAPGKERELVAAISRSGGSTYYADSVKGRFTISRDNAKNTVYLQMNSLKPEDTAVYYCAVAWNVRGVGARQRYIYGYWGQGTQVTVSS	high polyreactivity
QVQLVESGGGLVQAGGSLRLSCAASGFIFAYYAMGLYRQAPGKERELVAAITSDGSTYYADSVKGRFTISRDNAKNTVYLQMNSLKPEDTAVYYCNTYWVLRPGYNYWGQGTQVTVSS	high polyreactivity
QVQLVESVGGLVQAGGSLRLSCAASGFIFSVYAMGWNRQAPGKERELVAVISTSGGRTYYADSVKGRFTISRDNAKNTVYLQMNSLKPEDTAVDYCAADGFQYTLGNYYWGQGTQVTLSS	high polyreactivity
QVKLVESGGGLVQAGGSLRLSCAASGIIFQYYAMGWYRQAPGKESELVAAISWSGGSTYYADSVKGRFTISRDNAKNTVYLQMNSLKPEDTAVYYCAARSRSYWPYEGYYWGQGTQVTVSS	low polyreactivity
QVQLVESGGGLVQAGGSLRLSCAASGSTFTGYAMAWYRQAPGKERELVAAISSDGGSTYYADSVKGRFTMSRDNAKNTVYLQMNSLKPEDTAVYYCAALVYVSGYGYYYWGQGTQVTVSS	high polyreactivity
QVQLVESGGGLVQAGGSLRLSCAASGFIFRWYAMGWYRQAPWKERELVASINTDGDSTYYADSVKGRFTISRDNAKNTVYLQMNSLKPEDTAVYYCAADYVGYWWYTSDNYDYWGQGTQVTVSS	high polyreactivity
QVQLVESGGGLVQAGGSLRLSCAASGFIFRRNAMGWYRQAPGKEREFVAAITWSGGSTYYADSVKGRFTISRDNAKYTVYLQMNSLKPEDTAVYYCAATYSQYWYTKYLNSYPGYDYWGQGTQVTVSS	low polyreactivity
QVQLVESGGGLVQAGGSLRLSCAASGYIFSYNAMGWYRQAPGKERELVAAISRTGGSTNYADSVKGRFTISRDNAKNTVYLQMNSLKPEDTAVYYCAKRYRYPSWGEYGYWGQGTQVTVSS	high polyreactivity
QVQRVESGGGLVQAGGSLRLSCAASGLTSKFYAMGWYRQAPRKERELVAAISGSGGSTYYADSVKGRFTISRDKAKNTVYLQMNSLKPEDTAVYYFAARYFGLRYYYWGQGTQVTVSS	high polyreactivity
QVQLVESAGGIVQAGGSLRLSCDASGSIFYYYAMGWYRQAPGKERELVADISYRGSRTFYADSVKGLFTISRDIAKNTVYLQMNSLKPEDTEVYYCAAAYSRYTSRFYYWGQGTQVTVSS	high polyreactivity
QVQLVESGGGLVQAGGSLRLICAASGYIFDYYAMGWYRQAPGKERELVAAISWSGGSTYYADSVKGRFTISRDNEKNTVSLQMNSLKPEDTAVYYCAAEGTYYGSDYWGQGTQVTVSS	high polyreactivity
QVQLVESGGGLVQAGGSLRLSCAASGITFVWYDMGGYRQAPGKEREFVAVISKRGGSTYYADSVKGRFTISRDNAKNTVYLQMNSLKPEDTAVYYCAASYNLYRRYYYWGQGTQVTVSS	high polyreactivity
QVQLVESGGGLVQAGGSLRLSCAASGLTFDKIAMGWYRQAPGKERELVAAISTSGGGTYYADSVKGRFTISRDNPKTTVYLQRNSLKPEDTAVYYCAAKHYYYSPYVRYDPPPGYYWGQGTQVTVSS	high polyreactivity
QVQLVESGGGLVQAGGSIRLSCAASGSIFGAYAMGWYRQAPGKERELVATITLRDGSTYYADSVKGRFTSSRDNAKNTVYLQMNSLKPEDTAVYYCATYYSAINYGWSKTILYDYWGQGTQVTVSS	low polyreactivity
HVQLVESGGGLVQAGGSLRLSCAASGSTFNINAMVWYRQAPGKERELFAAISWSGDITYYADSVKGRFTISRDNAKNTVYLLMISLKPEDTAVYYCNTDDPGNYWYAEYDYWGQGTQVTVSS	low polyreactivity
QVQLVESGGGLVQAGGSLRLSCAASGFTFWFNAMGWYRQAPGKEREFVATISYSGASTYYADSVKGRFTISRDNAKNTVYLQMNSLKPEDTAVYYCAAANYDFYAFDSTYRYNYWGQGTQVTVSS	low polyreactivity
QVQLVESGGGLVQAGGSLRLSCAASGFIFSNNAMGWSRQAPGKERELVAAITSSGGRTYYADSVKGRFTISRDNAKNTVYLLMNSLKPEDTAVYYCAAARYDIMGYWGQGTQVTVSS	high polyreactivity
QVQLVESGGGLDQAGGSLRLSCAASGIIFGVNVMGWYRQAPGKERELVATITWRGDSTYYADSVKGRFTISRDNAKNTVYLQMNSLKPEDTAVYYCARGARTGVREDDYWGQGTQVTLSS	low polyreactivity
QVQLVESGGGLVQAGGSLRLSCAASGRIFNYYAMGWYRQAPGKERELVAAINWSGVRTYYADSVKGRFTISRDNAKNTVYLQMNSLKPEDTEVYYCARDAGAAYGYYSWGQGTQVTVSS	high polyreactivity
QVQLVESGGGLVQAGGSLRLSCAASGLIFVHYAMGWYRQAPGKERELVAAISAGGGSTYYADSVKGRFTISRDNAKNTVYLQMNSLKPEDTAVYYCNARVVNYFRPRTGAREYDYWGQGTQVTVSS	high polyreactivity

Reference: the nanobody polyreactivity screen of Harvey et al. (2022)
